The values that follow come from patent US8026218 (UNIVERSITY OF ARIZONA, dated 2011).

Bridge positions count the residues as written; N and C are the ends. Square brackets hold non-standard residues; d marks the D form. Ends that are not written are not given here. * marks the point of attachment. NHBn(CF3)2 = C-terminal amide NH-Bn(CF3)2, a benzyl group carrying two CF3; Glc = O-glucosyl on Ser side chain (Ser(OGlu)/Ser(OGlc)); NH(3,5-(CF3)2-benzyl) = FC(F)(F)c1cc(CN*)cc(C(F)(F)F)c1; OBzl(3,5-(CF3)2) = FC(F)(F)c1cc(CO*)cc(C(F)(F)F)c1; NH‑Bn(CF3)2 = C-terminal Bn(CF3)2 amide; Nle = CCCC[C@H](N)C(=O)O; OBn = c1ccc(CO*)cc1; βAla = NCCC(=O)O

The chains are these.
B1: Tyr-DAla-Gly-Phe-β-Ala-Trp-O-Bzl(CF3)2 (peptide)
peptide: Y[dA]GF[βAla]W-{O‑Bzl(CF3)2}
notes: also called NP32
B2: Tyr-DAla-Gly-Phe-Gly-Trp-O-Bzl(CF3)2 (peptide)
peptide: Y[dA]GFGW-{O‑Bzl(CF3)2}
B3: Tyr[DCysGlyPheNleProCys]TrpNHBn(CF3)2 (TY035) (peptide)
peptide: Y[dC]GF[Nle]PCW-{NH(3,5-(CF3)2-benzyl)}
modifications: disulfide 2-7
notes: also called [D-Cys2, Cys7]TY027
B4: TyrDAlaGlyPheNleProSer(OGlu)TrpNHBn(CF3)2 (TY041) (peptide)
peptide: Y[dA]GF[Nle]PS(Glc)W-{NH‑Bn(CF3)2}
B5: TyrDAlaGlyPheDPheProLeuTrpOBn(CF3)2 (TY007) (peptide)
peptide: Y[dA]GF[dF]PLW-{OBzl(3,5-(CF3)2)}
B6: TyrDAlaGlyPheSer(OGlu)ProLeuTrpNHBn(CF3)2 (TY042) (peptide)
peptide: Y[dA]GFSPLW-{NH(3,5-(CF3)2-benzyl)}
modifications: not fully specified (residue 5); printed as TyrDAlaGlyPheSer(OGlu)ProLeuTrpNHBn(CF3)2
B7: TyrDAlaGlyPhePheProLeuTrpOBn (TY014) (peptide)
peptide: Y[dA]GFFPLW-OBn
B8: TyrDAlaGlyPheLeuProLeuTrpOBn(CF3)2 (TY004) (peptide)
peptide: Y[dA]GFLPLW-{OBzl(3,5-(CF3)2)}
B9: TyrDAlaGlyPhePheProLeuTrpOBn(CF3)2 (TY003) (peptide)
peptide: Y[dA]GFFPLW-{OBzl(3,5-(CF3)2)}
B10: TyrDAlaGlyPhePheProLeuTrpNHBn(CF3)2 (TY015) (peptide)
peptide: Y[dA]GFFPLW-{NHBn(CF3)2}

The target in one assay is human δ opioid receptor (human, UniProt P41143 1-372). Briefly: cell-based or functional assay.
Target sequence in this assay (P41143 whole entry, stated change not applied): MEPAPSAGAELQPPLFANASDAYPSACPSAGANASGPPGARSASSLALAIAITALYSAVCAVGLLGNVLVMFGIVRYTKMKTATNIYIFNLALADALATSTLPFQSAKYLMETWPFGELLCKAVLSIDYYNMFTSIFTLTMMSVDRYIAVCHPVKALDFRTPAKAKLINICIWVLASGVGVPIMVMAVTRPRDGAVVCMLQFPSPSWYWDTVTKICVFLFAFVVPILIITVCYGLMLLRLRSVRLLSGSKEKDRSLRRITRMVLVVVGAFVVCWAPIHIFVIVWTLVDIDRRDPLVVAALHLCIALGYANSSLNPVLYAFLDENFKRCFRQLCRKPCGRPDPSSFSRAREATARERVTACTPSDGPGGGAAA
Take B1: the “GTP EMax” value amounted to 87.
For the molecule B2, the “GTP EMax” value was 87.

The target of a further assay is T1, rat µ opioid receptor (rat, UniProt P33535 1-398). Briefly: cell-based or functional assay.
T1 sequence (P33535 whole entry): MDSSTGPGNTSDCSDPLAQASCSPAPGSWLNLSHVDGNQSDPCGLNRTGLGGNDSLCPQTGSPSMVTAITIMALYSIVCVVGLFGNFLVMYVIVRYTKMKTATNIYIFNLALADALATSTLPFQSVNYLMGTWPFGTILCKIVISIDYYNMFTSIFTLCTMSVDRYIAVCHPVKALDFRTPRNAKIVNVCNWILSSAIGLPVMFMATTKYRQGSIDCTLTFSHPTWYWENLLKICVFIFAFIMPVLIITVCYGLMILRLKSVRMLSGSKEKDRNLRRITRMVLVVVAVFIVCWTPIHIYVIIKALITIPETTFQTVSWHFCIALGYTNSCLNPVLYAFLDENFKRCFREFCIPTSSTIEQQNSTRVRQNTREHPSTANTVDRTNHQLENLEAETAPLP
As for B1, the “GTP EMax” value stood at 70.
As for B2, the “GTP EMax” value was determined as 36.

For a further assay, the target named is T2, human δ opioid receptor (human, UniProt P41143 1-372). Briefly: cell-based or functional assay.
T2 sequence (P41143 whole entry, stated change not applied): as the sequence (P41143 whole entry, stated change not applied) above
With B3, the “GTP binding hDOR EC50” value stood at 0.02 nM and the “GTP binding hDOR Emax” value stood at 11%.
In the case of B4, the “GTP binding hDOR EC50” value turned out to be 7.9 nM and the “GTP binding hDOR Emax” value came to 62%.
Regarding B5, the “GTP binding hDOR EC50” value was 16.7 nM and the “GTP binding hDOR Emax” value was found to be 22.9%.
In the case of B6, the “GTP binding hDOR EC50” value was 51.9 nM and the “GTP binding hDOR Emax” value stood at 47%.
For B7, the “GTP binding hDOR EC50” value amounted to 25.6 nM and the “GTP binding hDOR Emax” value stood at 137%.
As for B8, the “GTP binding hDOR EC50” value is 9.6 nM and the “GTP binding hDOR Emax” value stood at 42.5%.
B9: the “GTP binding hDOR EC50” value is 20.8 nM and the “GTP binding hDOR Emax” value was determined as 39%.
Turning to B10, the “GTP binding hDOR EC50” value was 81.4 nM and the “GTP binding hDOR Emax” value is 142%.

The target of another assay is T3, rat µ opioid receptor (rat, UniProt P33535 1-398). Briefly: cell-based or functional assay.
T3 sequence (P33535 whole entry): as the sequence (P33535 whole entry) above
On to B3, for which the “GTP binding rMOR EC50” value is 36 nM and the “GTP binding rMOR Emax” value amounted to 39%.
With B4, the “GTP binding rMOR EC50” value is 18 nM and the “GTP binding rMOR Emax” value was found to be 42%.
In the same order, the values of B5 are 345 nM and 23.6%.
As to B6, the “GTP binding rMOR EC50” value was found to be 176 nM and the “GTP binding rMOR Emax” value amounted to 28%.
In the same order, the values of B7 are 76 nM and 72.3%.
Consider B8, for which the “GTP binding rMOR Emax” value came to 44.5%.
For the molecule B9, the “GTP binding rMOR EC50” value is 58.7 nM and the “GTP binding rMOR Emax” value was found to be 36.3%.
Take B10: the “GTP binding rMOR EC50” value was determined as 176 nM and the “GTP binding rMOR Emax” value was 64.4%.

The next assay deals with µ opioid receptor of the guinea pig isolated ileum (guinea pig, UniProt P97266 1-98). The experiment in a line: cell-based or functional assay.
Sequence of µ opioid receptor of the guinea pig isolated ileum (P97266 whole entry): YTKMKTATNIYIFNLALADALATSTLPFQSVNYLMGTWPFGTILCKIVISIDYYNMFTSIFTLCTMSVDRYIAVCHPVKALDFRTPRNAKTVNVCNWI
Regarding B3, the “GPI/LMMP opioid(mu) agonist IC50” value came to 1010 nM.
With B4, the “GPI/LMMP opioid(mu) agonist IC50” value turned out to be 517 nM.
Still for that read-out and setting: next, B5: 9.2%; B6: 1890 nM; B8: 341 nM.
Take B9: the “GPI/LMMP opioid(mu) agonist IC50” value stood at 6.6 % @ 1 uM.

For the next assay, the target named is guinea pig NK1 receptor (guinea pig, UniProt P30547 1-407). Briefly: cell-based or functional assay.
Sequence of guinea pig NK1 receptor (P30547 whole entry): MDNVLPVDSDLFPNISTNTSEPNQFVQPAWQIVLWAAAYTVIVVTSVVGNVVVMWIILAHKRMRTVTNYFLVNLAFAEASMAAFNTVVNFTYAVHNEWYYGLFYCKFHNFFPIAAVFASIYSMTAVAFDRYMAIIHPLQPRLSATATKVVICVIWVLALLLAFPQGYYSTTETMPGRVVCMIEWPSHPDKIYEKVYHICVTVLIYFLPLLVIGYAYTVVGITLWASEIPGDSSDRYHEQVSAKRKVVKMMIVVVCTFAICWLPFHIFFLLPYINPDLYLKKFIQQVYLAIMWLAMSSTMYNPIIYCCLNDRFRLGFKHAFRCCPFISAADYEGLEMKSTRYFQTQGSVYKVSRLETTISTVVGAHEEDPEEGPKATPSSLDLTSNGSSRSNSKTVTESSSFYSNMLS
As to B3, the “GPI/LMMP SP antagonist Ke” value was found to be 2.2 nM.
On to B4, for which the “GPI/LMMP SP antagonist Ke” value was determined as 1.8 nM.
Consider B5, for which the “GPI/LMMP SP antagonist Ke” value was 69.6 nM.
Same read-out and setting: the figure for B6 is 2.83 nM; for B8 it is 19.4 nM.
For the molecule B9, the “GPI/LMMP SP antagonist Ke” value was determined as 14.4 nM.

In another assay the target is T1, rat µ opioid receptor. The experiment in a line: competition vs [3H]DAMGO, rMOR cell membranes.
As for B1, the Ki (commonly a measure of affinity in units of concentration, obtained from inhibition or displacement) was 11.2 nM. This lies in the double-digit nanomolar range.

The target in a further assay is T4, rat NK1 receptor (rat, UniProt P14600 1-407).
T4 construct: whole, on cells; membrane preparations of the transfected cells were used; also called rNK1; rNK-1
Briefly: competition vs [3H]Substance P, rNK1 CHO cell membranes.
T4 sequence (P14600 whole entry): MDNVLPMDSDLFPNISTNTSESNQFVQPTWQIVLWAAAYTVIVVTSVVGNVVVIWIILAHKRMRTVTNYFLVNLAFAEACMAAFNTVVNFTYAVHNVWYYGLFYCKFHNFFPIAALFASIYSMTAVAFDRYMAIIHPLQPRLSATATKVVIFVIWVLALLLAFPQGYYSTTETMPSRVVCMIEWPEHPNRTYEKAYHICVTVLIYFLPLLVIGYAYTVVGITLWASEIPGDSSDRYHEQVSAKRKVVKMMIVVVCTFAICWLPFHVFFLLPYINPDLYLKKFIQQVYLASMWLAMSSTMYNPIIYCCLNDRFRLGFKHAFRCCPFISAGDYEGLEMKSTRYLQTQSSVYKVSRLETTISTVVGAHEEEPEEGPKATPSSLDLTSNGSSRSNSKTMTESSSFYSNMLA
On to B1, for which the inhibition constant (Ki) worked out at 1.6 nM.

Another assay has as its target T3, rat µ opioid receptor. Briefly: radioligand competition vs [3H]DAMGO, membranes of rMOR cells. For orientation: Displacement assays read how much labelled ligand stays bound in the presence of the test substance.
In the case of B3, the affinity, expressed as Ki, was 79.2 nM.
On to B4, for which the inhibition constant Ki came to 8 nM.
The same measure, in the same setting: next, B5: 410 nM.
With B6, the inhibition constant (Ki) is 256 nM.
Same read-out and setting: the figure for B7 is 36.3 nM; for B8 it is 23.3 nM; for B9 it is 28.3 nM.
As for B10, the affinity corresponds to a Ki of 53.7 nM.

The next assay concerns the target T2, human δ opioid receptor. Briefly: radioligand competition vs [3H]DPDPE, membranes of hDOR cells.
Consider B3, for which the affinity corresponds to a Ki of 1.29 nM.
As to B5, affinity was put at a Ki of 110 nM.
For B6, the affinity, expressed as Ki, was 58.5 nM.
As to B7, the inhibitory constant (Ki) stood at 11.5 nM. This Ki is about 5.1-fold lower than that of the molecule before.
Molecule B8 came in with an inhibition constant Ki of 5 nM.
On the same count and under the same terms, next, B9: 14.6 nM; B10: 12.5 nM.

Another assay deals with T5, human NK1 receptor (human, UniProt P25103 1-407).
T5 construct: whole, on cells; Used as membrane preparations of transfected CHO cells; also called hNK1; human neurokinin-1 receptor
T5 sequence (P25103 whole entry): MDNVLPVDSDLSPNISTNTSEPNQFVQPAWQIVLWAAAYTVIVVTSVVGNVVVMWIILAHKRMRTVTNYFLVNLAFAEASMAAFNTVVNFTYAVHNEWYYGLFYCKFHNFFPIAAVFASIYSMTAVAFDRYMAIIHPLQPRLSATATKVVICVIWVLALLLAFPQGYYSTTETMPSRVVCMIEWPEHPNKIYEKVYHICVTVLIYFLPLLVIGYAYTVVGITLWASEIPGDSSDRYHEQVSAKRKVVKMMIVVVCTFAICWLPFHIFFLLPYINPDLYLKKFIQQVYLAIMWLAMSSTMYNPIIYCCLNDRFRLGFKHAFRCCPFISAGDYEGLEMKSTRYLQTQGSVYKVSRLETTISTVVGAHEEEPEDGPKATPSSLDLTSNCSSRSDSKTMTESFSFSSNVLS
The experiment in a line: radioligand competition vs [3H]substance P, membranes of hNK1 CHO cells.
B3 showed a Ki of 0.091 nM.
B5 returned an inhibitory constant (Ki) of 1.3 nM.
Still for that read-out and setting: the figure for B6 is 0.00027 nM; for B7 it is 0.265 nM; for B8 it is 0.016 nM.
In turn, B9 yielded an inhibition constant (Ki) of 0.021 nM.
With B10, affinity was put at a Ki of 0.192 nM.

The target of the next assay is T6, rat NK1 receptor (rat, UniProt P14600 1-407).
T6 construct: whole, on cells; Used as membrane preparations of transfected CHO cells; also called rNK1; rat neurokinin-1 receptor
The experiment in a line: radioligand competition vs [3H]substance P, membranes of rNK1 CHO cells.
T6 sequence (P14600 whole entry): as the sequence (P14600 whole entry) above
B4 displayed a Ki of 13.6 nM.
Molecule B5 displayed a Ki of 3 nM.
Molecule B6 yielded an inhibition constant Ki of 1.45 nM. This Ki is about 2.1-fold lower than that of the molecule before.
On the same count and under the same terms, next, B7: 124 nM; B8: 0.8 nM.
Same read-out and setting: the figure for B9 is 0.88 nM.
Molecule B10 yielded an inhibition constant (Ki) of 0.98 nM.
